In patent US6548475:

Biological target: molecules present at the cell surface of both cerebellar neurons and PC12 cells
Experiment: cell-based or functional assay

- percentage of adherent cells (mouse cerebellar neurons on KAL-coated surface, 90 min): 80%
Substance: purified recombinant human KAL protein (isolated from transfected CHO cells, clone CHKAL2-3/dll), coated on plastic (from UniProt P23352 25-680)
